# Target: canine FcRn complex (FcRn-α subunit and β-microglobulin) (canine, UniProt A0A8I3PFR8 25-347, biotin on the BAP tag by BirA (Example 5 only))
# Experiment: SPR (Biacore), biotinylated FcRn on SA chip, IgG flowed, pH 6, 15 C
# canine FcRn complex (FcRn-α subunit and β-microglobulin), sequence (A0A8I3PFR8 entry or part of it, one chain of several): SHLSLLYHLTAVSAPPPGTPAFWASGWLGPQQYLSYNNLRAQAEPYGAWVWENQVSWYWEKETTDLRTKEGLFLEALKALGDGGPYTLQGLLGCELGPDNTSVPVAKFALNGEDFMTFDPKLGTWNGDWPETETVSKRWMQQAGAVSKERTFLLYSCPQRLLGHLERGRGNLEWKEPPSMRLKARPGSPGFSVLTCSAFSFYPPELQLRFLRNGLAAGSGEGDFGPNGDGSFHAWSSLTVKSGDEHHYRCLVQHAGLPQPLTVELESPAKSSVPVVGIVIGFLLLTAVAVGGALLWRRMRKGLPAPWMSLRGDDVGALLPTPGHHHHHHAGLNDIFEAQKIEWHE
row,Binder,Kd [nM]
1,"mAb2 of Table 4A, caninized anti-NGF antibody ZTS-841, canine IgGB, WT (antibody, also called ID No. 46) heavy: EVQLVESGGDLVKPGGSLRLSCVASGFTFSSHGMHWVRQSPGKGLQWVAVINSGGSSTYYTDAVKGRFTISRDNAKNTVYLQMNSLRAEDTAMYYCAKESVGGWEQLVGPHFDYWGQGTLVIVSSASTTAPSVFPLAPSCGSTSGSTVALACLVSGYFPEPVTVSWNSGSLTSGVHTFPSVLQSSGLYSLSSMVTVPSSRWPSETFTCNVAHPASKTKVDKPVPKRENGRVPRPPDCPKCPAPEMLGGPSVFIFPPKPKDTLLIARTPEVTCVVVDLDPEDPEVQISWFVDGKQMQTAKTQPREEQFNGTYRVVSVLPIGHQDWLKGKQFTCKVNNKALPSPIERTISKARGQAHQPSVYVLPPSREELSKNTVSLTCLIKDFFPPDIDVEWQSNGQQEPESKYRTTPPQLDEDGSYFLYSKLSVDKSRWQRGDTFICAVMHEALHNHYTQESLSHSPGK VL: QSVLTQPTSVSGSLGQRVTISCSGSTNNIGILGASWYQLFPGKAPKLLVYGNGNRPSGVPDRFSGADSGDSVTLTITGLQAEDEADYYCQSFDTTLGAHVFGGGTHLTVL",91.5
2,"mAb2 of Table 4A, caninized anti-NGF antibody ZTS-841, canine IgGB, N434L (antibody, also called ID No. 52) heavy: EVQLVESGGDLVKPGGSLRLSCVASGFTFSSHGMHWVRQSPGKGLQWVAVINSGGSSTYYTDAVKGRFTISRDNAKNTVYLQMNSLRAEDTAMYYCAKESVGGWEQLVGPHFDYWGQGTLVIVSSASTTAPSVFPLAPSCGSTSGSTVALACLVSGYFPEPVTVSWNSGSLTSGVHTFPSVLQSSGLYSLSSMVTVPSSRWPSETFTCNVAHPASKTKVDKPVPKRENGRVPRPPDCPKCPAPEMLGGPSVFIFPPKPKDTLLIARTPEVTCVVVDLDPEDPEVQISWFVDGKQMQTAKTQPREEQFNGTYRVVSVLPIGHQDWLKGKQFTCKVNNKALPSPIERTISKARGQAHQPSVYVLPPSREELSKNTVSLTCLIKDFFPPDIDVEWQSNGQQEPESKYRTTPPQLDEDGSYFLYSKLSVDKSRWQRGDTFICAVMHEALHLHYTQESLSHSPGK VL: QSVLTQPTSVSGSLGQRVTISCSGSTNNIGILGASWYQLFPGKAPKLLVYGNGNRPSGVPDRFSGADSGDSVTLTITGLQAEDEADYYCQSFDTTLGAHVFGGGTHLTVL",1.83
3,"mAb2 of Table 4A, caninized anti-NGF antibody ZTS-841, canine IgGB, N434G (antibody, also called ID No. 49) heavy: EVQLVESGGDLVKPGGSLRLSCVASGFTFSSHGMHWVRQSPGKGLQWVAVINSGGSSTYYTDAVKGRFTISRDNAKNTVYLQMNSLRAEDTAMYYCAKESVGGWEQLVGPHFDYWGQGTLVIVSSASTTAPSVFPLAPSCGSTSGSTVALACLVSGYFPEPVTVSWNSGSLTSGVHTFPSVLQSSGLYSLSSMVTVPSSRWPSETFTCNVAHPASKTKVDKPVPKRENGRVPRPPDCPKCPAPEMLGGPSVFIFPPKPKDTLLIARTPEVTCVVVDLDPEDPEVQISWFVDGKQMQTAKTQPREEQFNGTYRVVSVLPIGHQDWLKGKQFTCKVNNKALPSPIERTISKARGQAHQPSVYVLPPSREELSKNTVSLTCLIKDFFPPDIDVEWQSNGQQEPESKYRTTPPQLDEDGSYFLYSKLSVDKSRWQRGDTFICAVMHEALHGHYTQESLSHSPGK VL: QSVLTQPTSVSGSLGQRVTISCSGSTNNIGILGASWYQLFPGKAPKLLVYGNGNRPSGVPDRFSGADSGDSVTLTITGLQAEDEADYYCQSFDTTLGAHVFGGGTHLTVL",34.3
4,"mAb2 of Table 4A, caninized anti-NGF antibody ZTS-841, canine IgGC, WT (antibody, also called ID No. 53) heavy: EVQLVESGGDLVKPGGSLRLSCVASGFTFSSHGMHWVRQSPGKGLQWVAVINSGGSSTYYTDAVKGRFTISRDNAKNTVYLQMNSLRAEDTAMYYCAKESVGGWEQLVGPHFDYWGQGTLVIVSSASTTAPSVFPLAPSCGSQSGSTVALACLVSGYIPEPVTVSWNSVSLTSGVHTFPSVLQSSGLYSLSSMVTVPSSRWPSETFTCNVAHPATNTKVDKPVAKECECKCNCNNCPCPGCGLLGGPSVFIFPPKPKDILVTARTPTVTCVVVDLDPENPEVQISWFVDSKQVQTANTQPREEQSNGTYRVVSVLPIGHQDWLSGKQFKCKVNNKALPSPIEEIISKTPGQAHQPNVYVLPPSRDEMSKNTVTLTCLVKDFFPPEIDVEWQSNGQQEPESKYRMTPPQLDEDGSYFLYSKLSVDKSRWQRGDTFICAVMHEALHNHYTQISLSHSPGK VL: QSVLTQPTSVSGSLGQRVTISCSGSTNNIGILGASWYQLFPGKAPKLLVYGNGNRPSGVPDRFSGADSGDSVTLTITGLQAEDEADYYCQSFDTTLGAHVFGGGTHLTVL",52
5,"mAb2 of Table 4A, caninized anti-NGF antibody ZTS-841, canine IgGB, N434A (antibody, also called ID No. 47) heavy: EVQLVESGGDLVKPGGSLRLSCVASGFTFSSHGMHWVRQSPGKGLQWVAVINSGGSSTYYTDAVKGRFTISRDNAKNTVYLQMNSLRAEDTAMYYCAKESVGGWEQLVGPHFDYWGQGTLVIVSSASTTAPSVFPLAPSCGSTSGSTVALACLVSGYFPEPVTVSWNSGSLTSGVHTFPSVLQSSGLYSLSSMVTVPSSRWPSETFTCNVAHPASKTKVDKPVPKRENGRVPRPPDCPKCPAPEMLGGPSVFIFPPKPKDTLLIARTPEVTCVVVDLDPEDPEVQISWFVDGKQMQTAKTQPREEQFNGTYRVVSVLPIGHQDWLKGKQFTCKVNNKALPSPIERTISKARGQAHQPSVYVLPPSREELSKNTVSLTCLIKDFFPPDIDVEWQSNGQQEPESKYRTTPPQLDEDGSYFLYSKLSVDKSRWQRGDTFICAVMHEALHAHYTQESLSHSPGK VL: QSVLTQPTSVSGSLGQRVTISCSGSTNNIGILGASWYQLFPGKAPKLLVYGNGNRPSGVPDRFSGADSGDSVTLTITGLQAEDEADYYCQSFDTTLGAHVFGGGTHLTVL",9.81
6,"mAb2 of Table 4A, caninized anti-NGF antibody ZTS-841, canine IgGB, N434F (antibody, also called ID No. 48) heavy: EVQLVESGGDLVKPGGSLRLSCVASGFTFSSHGMHWVRQSPGKGLQWVAVINSGGSSTYYTDAVKGRFTISRDNAKNTVYLQMNSLRAEDTAMYYCAKESVGGWEQLVGPHFDYWGQGTLVIVSSASTTAPSVFPLAPSCGSTSGSTVALACLVSGYFPEPVTVSWNSGSLTSGVHTFPSVLQSSGLYSLSSMVTVPSSRWPSETFTCNVAHPASKTKVDKPVPKRENGRVPRPPDCPKCPAPEMLGGPSVFIFPPKPKDTLLIARTPEVTCVVVDLDPEDPEVQISWFVDGKQMQTAKTQPREEQFNGTYRVVSVLPIGHQDWLKGKQFTCKVNNKALPSPIERTISKARGQAHQPSVYVLPPSREELSKNTVSLTCLIKDFFPPDIDVEWQSNGQQEPESKYRTTPPQLDEDGSYFLYSKLSVDKSRWQRGDTFICAVMHEALHFHYTQESLSHSPGK VL: QSVLTQPTSVSGSLGQRVTISCSGSTNNIGILGASWYQLFPGKAPKLLVYGNGNRPSGVPDRFSGADSGDSVTLTITGLQAEDEADYYCQSFDTTLGAHVFGGGTHLTVL",1.92
7,"mAb1, caninized anti-IL31 antibody 34D03, canine IgGC, WT (antibody, VH/VL: the caninized 34D03 entries of the listing; also called ID No. 35) heavy: EVQLVESGGDLVKPGGSLRLSCVASGFTFSNYGMSWVRQAPGKGLQWVATISYGGSYTYYPDNIKGRFTISRDNAKNTLYLQMNSLRAEDTAMYYCVRGYGYDTMDYWGQGTLVTVSSASTTAPSVFPLAPSCGSQSGSTVALACLVSGYIPEPVTVSWNSVSLTSGVHTFPSVLQSSGLYSLSSMVTVPSSRWPSETFTCNVAHPATNTKVDKPVAKECECKCNCNNCPCPGCGLLGGPSVFIFPPKPKDILVTARTPTVTCVVVDLDPENPEVQISWFVDSKQVQTANTQPREEQSNGTYRVVSVLPIGHQDWLSGKQFKCKVNNKALPSPIEEIISKTPGQAHQPNVYVLPPSRDEMSKNTVTLTCLVKDFFPPEIDVEWQSNGQQEPESKYRMTPPQLDEDGSYFLYSKLSVDKSRWQRGDTFICAVMHEALHNHYTQISLSHSPGK VL: EIVMTQSPASLSLSQEEKVTITCKASQSVSFAGTGLMHWYQQKPGQAPKLLIYRASNLEAGVPSRFSGSGSGTDFSFTISSLEPEDVAVYYCQQSREYPWTFGQGTKLEIK",100

# Source: patent publication US20260193342A1 (ZOETIS SERVICES, published 2026)
